T1: huCLL1-K244-Avi-Tev-His (human, UniProt Q5QGZ9 65-265)
T1 construct: extracellular domain
T1 sequence (looked up): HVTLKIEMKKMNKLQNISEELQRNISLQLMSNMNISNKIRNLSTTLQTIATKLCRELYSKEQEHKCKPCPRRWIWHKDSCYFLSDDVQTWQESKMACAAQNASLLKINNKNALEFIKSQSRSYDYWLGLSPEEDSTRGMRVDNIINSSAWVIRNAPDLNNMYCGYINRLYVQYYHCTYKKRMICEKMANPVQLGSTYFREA

T2: huCLL1-Q244-Avi-Tev-His (human, UniProt Q5QGZ9 65-265)
T2 construct: extracellular domain; also called CLL-1 K244Q
T2 sequence (looked up): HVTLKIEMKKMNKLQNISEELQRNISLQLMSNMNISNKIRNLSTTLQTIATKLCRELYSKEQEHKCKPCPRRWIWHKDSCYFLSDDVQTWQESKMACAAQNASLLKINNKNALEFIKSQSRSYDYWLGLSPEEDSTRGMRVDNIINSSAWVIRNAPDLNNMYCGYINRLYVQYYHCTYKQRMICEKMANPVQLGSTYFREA


Assays:
huCLL1-K244-Avi-Tev-His = target: T1, huCLL1-K244-Avi-Tev-His; experiment: BLI
Protocol: (§1) Discovered scFvs were analyzed for binding to huCD33-R69-His or huCD33-G69-Fc recombinant proteins (for anti-CD33 scFvs; for CLL-1 scFvs, huCLL1-K244-Avi-Tev-His or huCLL1-Q244-Avi-Tev-His were used; for FLT3, huFLT3-T227-His or huFLT3-M227-Fc were used) using BLI on a ForteBio Octet HTX instrument. Streptavidin-coated biosensors were loaded with biotinylated anti-V5 tag monoclonal antibody for 5 min and were then quenched and blocked with 20 μM amine-PEG2-Biotin for 5 min. scFvs were captured on biosensors from scFv clone periplasmic extracts. huCD33 (or huCLL-1, or huFLT3) proteins were then associated with the captured scFvs for 2 minutes, followed by dissociation with buffer (1×HBST [10 mM HEPES pH 7.4, 150 mM NaCl, 0.05% Tween-20], 1 g/L BSA) for 5 minutes. […] Data was fitted with 1:1 Langmuir equation and off-rate values were reported.
(§2) Analogous methods were used to assess selectivity of binding of polypeptides to CLL-1 K244 or CLL-1 Q244.

huCLL1-Q244-Avi-Tev-His = target: T2, huCLL1-Q244-Avi-Tev-His; experiment: BLI
Protocol: as §1, §2

[1] = target: T3, huFLT3-T227 stably expressed on Ramos cells (human, UniProt P36888 27-993); experiment: FACS on cells
T3 construct: whole, on cells; also called FLT3 WT

[2] = target: T4, huFLT3-M227 stably expressed on Ramos cells (human, UniProt P36888 27-993); experiment: FACS on cells
T4 construct: whole, on cells; also called FLT3 Mutant
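Wherever result is given: Bio-layer interferometry with scFvs captured on biosensors via anti-V5 antibody, exposed 2 min to CLL-1 K244 or Q244 protein, 5 min dissociation, scored as binding, no binding or ambiguous.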

Row | Binder | binding result (huCLL1-K244-Avi-Tev-His) | binding result (huCLL1-Q244-Avi-Tev-His) | FACS geometric mean fold change over Jurkat parental [1] [fold] | FACS geometric mean fold change over Jurkat parental [2] [fold]
1 | Polypeptide No. 52 (scFv, V domains shown, scFv) VH: QVQLVQSGAEVKKPGASVKVSCKASGDTFTRHYVHWVRQAPGQGLEWMGIINPRGGTHYAQKFQGRVTMTRDTSTSTVYMELSSLRSEDTAVYYCARRDCSGGSCYSDLDYWGQGTLVTVSS VL: DIQMTQSPSSLSASVGDRVTITCQASQDIHNYLNWYQQKPGKAPKLLIYQASSLESGVPSRFSGSGSGTDFTLTISSLQPEDFATYYCQQANSFPLTFGGGTKLEIKR | binds | no binding | – | –
2 | Polypeptide No. 57 (scFv, V domains shown, scFv) VH: QVQLVQSGAEVKKPGASVKVSCKASGYTFNNYGITWVRQAPGQGLEWMGIINPITGVTTYAQNFQGRVTMTRDTSTSTVYMELSSLRSEDTAVYYCASGEQQLVLFDYWGQGTLVTVSS VL: DIQMTQSPSSLSASVGDRVTITCQASQDINDYLNWYQQKPGKAPKLLIYGASNLQSGVPSRFSGSGSGTDFTLTISSLQPEDFATYYCLQHNSYPLTFGQGTKLEIKR | binds | no binding | – | –
3 | Polypeptide No. 59 (scFv, V domains shown, scFv) VH: EVQLLESGGGLVQPGGSLRLSCAASGFTFSNAWMSWVRQAPGKGLEWVADISYDGTNDYYADSVKGRFTISRDNSKNTLYLQMNSLRAEDTAVYYCTTEELRFGGFDYWGQGTLVTVSS VL: DIQMTQSPSSLSASVGDRVTITCRASQSISSYLNWYQQKPGKAPKLLIYDASNLETGVPSRFSGSGSGTDFTLTISSLQPEDFATYYCQQANSFPLTFGQGTKVEIKR | binds | no binding | – | –
4 | Polypeptide No. 294 (scFv, V domains shown, scFv) VH: QVQLVQSGAEVKKPGASVKVSCKASGYTFTSNNMHWVRQAPGQGLEWMGWINLNSGGTNYAQKFQGRVTMTRDTSTSTVYMELSSLRSEDTAVYYCAKAIDYYYMDVWGKGTTVTVSS VL: DIQMTQSPSSLSASVGDRVTITCRASQGIRNDLGWYQQKPGKAPKLLIYQASSLENGVPSRFSGSGSGTDFTLTISSLQPEDFATYYCQQAYSLPWTFGQGTKLEIKR | – | – | 10 to 30 | 10 to 30
5 | Polypeptide No. 287 (scFv, V domains shown, scFv) VH: QVQLVQSGAEVKKPGASVKVSCKASGYTFTRHYVHWVRQAPGQGLEWVGIINPSSGSASYAQKFQGRVTMTRDTSTSTVYMELSSLRSEDTAVYYCARDRLRSRFDYWGQGTLVTVSS VL: DIQMTQSPSSLSASVGDRVTITCRASQSISSSLAWYQQKPGKAPKLLIYAASSLQSGVPSRFSGSGSGTDFTLTISSLQPEDFATYYCQQSYTIPPTFGQGTKLEIKR | – | – | 10 to 30 | 2 to 10
6 | Polypeptide No. 292 (scFv, V domains shown, scFv) VH: QVQLVQSGAEVKKPGASVKVSCKASGYTFTSYGISWVRQAPGQGLEWMGWINPNSGGTNYAQKFQGRVTMTRDTSTSTVYMELSSLRSEDTAVYYCARQGGLRDFDYWGQGTLVTVSS VL: DIQMTQSPSSLSASVGDRVTITCRASQSISTYVNWYQQKPGKAPKLLIYDTSSLQSGVPSRFSGSGSGTDFTLTISSLQPEDFATYYCQQSFITPPTFGQGTKLEIKR | – | – | 2 to 10 | 2 to 10
7 | Polypeptide No. 293 (scFv, V domains shown, scFv) VH: QVQLVQSGAEVKKPGSSVKVSCKASGYMFTTPYIHWVRQAPGQGLEWMGVINPISGTTTYAQKFQGRVTITADESTSTAYMELSSLRSEDTAVYYCANDRHYDFWSGYYKEEWEYFQHWGQGTLVTVSS VL: not shown | – | – | 2 to 10 | 2 to 10
8 | Polypeptide No. 288 (scFv, V domains shown, scFv) VH: QVQLVQSGAEVKKPGASVKVSCKASGYTFTTYDINWVRQAPGQGLEWMGWMNPSSGNSGFAQQFQGRVTMTRDTSTSTVYMELSSLRSEDTAVYYCAREDYYDSSGYYNWGQGTLVTVSS VL: DIQMTQSPSSLSASVGDRVTITCRASQGISNNLNWYQQKPGKAPKLLIYKASTLESGVPSRFSGSGSGTDFTLTISSLQPEDFATYYCQQSYSTPITFGQGTKVEIKR | – | – | 2 to 10 | 10 to 30

Further lines, results first:

Row | binding result (huCLL1-K244-Avi-Tev-His) | binding result (huCLL1-Q244-Avi-Tev-His) | FACS geometric mean fold change over Jurkat parental [1] [fold] | FACS geometric mean fold change over Jurkat parental [2] [fold] | Binder
9 | binds | no binding | – | – | Polypeptide No. 60 (scFv, V domains shown, scFv) VH: QVQLVQSGAEVKKPGSSVKVSCKASGGTFSSYAISWVRQAPGQGLEWMGGIIPMFGTANYAQKFQGRVTITADESTSTAYMELSSLRSEDTAVYYCARDLGYSNAGGTLHYWGQGTLVTVSS VL: EIVMTQSPATLSVSPGERATLSCRASQSIGTYLAWYQQKPGQAPRLLIYDASSRATGIPARFSGSGSGTEFTLTISSLQSEDFAVYYCQQYKSYPLTFGGGTKVEIKR
10 | binds | no binding | – | – | Polypeptide No. 50 (scFv, V domains shown, scFv) VH: QVQLVQSGAEVKKPGASVKVSCKASGYTFTDYYMHWVRQAPGQGLEWMGIINPSDGSTTYAQSFQGRVTMTRDTSTSTVYMELSSLRSEDTAVYYCARDELPDSSGWYGYFQHWGQGTLVTVSS VL: DIQMTQSPSSLSASVGDRVTITCRASQSISSWLAWYQQKPGKAPKLLIYAASSLQSGVPSRFSGSGSGTDFTLTISSLQPEDFATYYCQQSYDIPLTFGGGTKVEIKR
11 | binds | no binding | – | – | Polypeptide No. 53 (scFv, V domains shown, scFv) VH: QVQLVQSGAEVKKPGASVKVSCKASGGTFSSYAISWVRQAPGQGLEWMGWINPDSGDASYARKFQGRVTMTRDTSTSTVYMELSSLRSEDTAVYYCATFGEEAFDIWGQGTMVTVSS VL: DIQMTQSPSSLSASVGDRVTITCRASQNIGSWLAWYQQKPGKAPKLLIYGASILQSGVPSRFSGSGSGTDFTLTISSLQPEDFATYYCQQANSFPLTFGGGTKLEIKR
12 | binds | no binding | – | – | Polypeptide No. 56 (scFv, V domains shown, scFv) VH: QVQLVQSGAEVKKPGASVKVSCKASGYTFTSYDINWVRQAPGQGLEWMGWMNPNSGNTGYAQKFQGRVTMTRDTSTSTVYMELSSLRSEDTAVYYCARVSATGTYGLDYWGQGTLVTVSS VL: DIQMTQSPSSLSASVGDRVTITCRASHSISSWLAWYQQKPGKAPKLLIYDASNLETGVPSRFSGSGSGTDFTLTISSLQPEDFATYYCQQADSFPLTFGGGTKVEIKR
13 | binds | no binding | – | – | Polypeptide No. 54 (scFv, V domains shown, scFv) VH: QVQLVQSGAEVKKPGASVKVSCKASGGTFSSYAISWVRQAPGQGLEWMGWIDPKNGDTNYAQKFQGRVTMTRDTSTSTVYMELSSLRSEDTAVYYCATEGSHHPYYYYGMDVWGQGTTVTVSS VL: DIQMTQSPSSLSASVGDRVTITCRASQGIGNWLAWYQQKPGKAPKLLIYEASTLQSGVPSRFSGSGSGTDFTLTISSLQPEDFATYYCHQYNAYPWTFGQGTKVEIKR
14 | binds | no binding | – | – | Polypeptide No. 51 (scFv, V domains shown, scFv) VH: QVQLVQSGAEVKKPGSSVKVSCKASGGTFSSYAISWVRQAPGQGLEWMGEIIPFFGTANYAQKFQGRVTITADESTSTAYMELSSLRSEDTAVYYCARAEYGGDLDYWGQGTLVTVSS VL: DIQMTQSPSSLSASVGDRVTITCQASQDISNLLNWYQQKPGKAPKLLIYAASTLQSGVPSRFSGSGSGTDFTLTISSLQPEDFATYYCQQSYNTPWTFGPGTKVDIKR
15 | binds | no binding | – | – | Polypeptide No. 55 (scFv, V domains shown, scFv) VH: QVQLVQSGAEVKKPGASVKVSCKASGYTFTGYHMHWVRQAPGQGLEWMGWINPNTGGTNYAQKFQGRVTMTRDTSTSTVYMELSSLRSEDTAVYYCARPNTAMVPPYYYYYGMDVWGQGTLVTVSS VL: DIQMTQSPSSLSASVGDRVTITCQASQDISNYLNWYQQKPGKAPKLLIYAASSLQSGVPSRFSGSGSGTDFTLTISSLQPEDFATYYCQQYNSYPLTFGQGTKLEIKR
16 | binds | – | – | – | Polypeptide No. 61 (scFv, V domains shown, scFv) VH: QVQLVQSGAEVKKPGASVKVSCKASGYTFTNYYMHWVRQAPGQGLEWMGIINPSGGSTSYAQKFQGRVTMTRDTSTSTVYMELSSLRSEDTAVYYCARAEWDILTGYYIDYWGQGTLVTVSS VL: DIQMTQSPSSLSASVGDRVTITCQASQDISNYLNWYQQKPGKAPKLLIYGASSLQSGVPSRFSGSGSGTDFTLTISSLQPEDFATYYCQQHNSYPWTFGQGTKVEIKR
17 | no binding | – | – | – | Polypeptide No. 87 (scFv, V domains shown, scFv) VH: QVQLVQSGAEVKKPGASVKVSCKASGYSFTNYYIHWVRQAPGQGLEWMGWMNPYTGQTGYAQKFQGRVTMTRDTSTSTVYMELSSLRSEDTAVYYCTTDEETMDFHLWGRGTLVTVSS VL: DIQMTQSPSSLSASVGDRVTITCZASQSISSYLNWYQQKPGKAPKLLIYDASNLETGVPSRFSGSGSGTDFTLTISSLQPEDFATYYCQQANTFPITFGQGTRLEIKR
18 | binds | no binding | – | – | Polypeptide No. 58 (scFv, V domains shown, scFv) VH: QVQLVQSGAEVKKPGASVKVSCKASGYTFTDYYLHWVRQAPGQGLEWMGWMNPNSGNTGYAQKFQGRVTMTRDTSTSTVYMELSSLRSEDTAVYYCAADVITAYGMDVWGQGTMVTVSS VL: DIQMTQSPSSLSASVGDRVTITCRASQGISNYLAWYQQKPGKAPKLLIYDASNLETGVPSRFSGSGSGTDFTLTISSLQPEDFATYYCQQSYNVPPTFGQGTKVEIKR

— patent US20240101668A1 (WUGEN, published 2024)
